# Experimental data taken from paper PMC4627809, “Client Proteins and Small Molecule Inhibitors Display Distinct Binding Preferences for Constitutive and Stress-Induced HSP90 Isoforms and Their Conformationally Restricted Mutants” (PLoS ONE, 2015).
# B1: NL-RHOBTB2/DBC2 (natural protein, UniProt Q9BYZ6 1-727, looked up)
# chain: MDSDMDYERPNVETIKCVVVGDNAVGKTRLICARACNATLTQYQLLATHVPTVWAIDQYRVCQEVLERSRDVVDDVSVSLRLWDTFGDHHKDRRFAYGRSDVVVLCFSIANPNSLHHVKTMWYPEIKHFCPRAPVILVGCQLDLRYADLEAVNRARRPLARPIKPNEILPPEKGREVAKELGIPYYETSVVAQFGIKDVFDNAIRAALISRRHLQFWKSHLRNVQRPLLQAPFLPPKPPPPIIVVPDPPSSSEECPAHLLEDPLCADVILVLQERVRIFAHKIYLSTSSSKFYDLFLMDLSEGELGGPSEPGGTHPEDHQGHSDQHHHHHHHHHGRDFLLRAASFDVCESVDEAGGSGPAGLRASTSDGILRGNGTGYLPGRGRVLSSWSRAFVSIQEEMAEDPLTYKSRLMVVVKMDSSIQPGPFRAVLKYLYTGELDENERDLMHIAHIAELLEVFDLRMMVANILNNEAFMNQEITKAFHVRRTNRVKECLAKGTFSDVTFILDDGTISAHKPLLISSCDWMAAMFGGPFVESSTREVVFPYTSKSCMRAVLEYLYTGMFTSSPDLDDMKLIILANRLCLPHLVALTEQYTVTGLMEATQMMVDIDGDVLVFLELAQFHCAYQLADWCLHHICTNYNNVCRKFPRDMKAMSPENQEYFEKHRWPPVWYLKEEDHYQRARKEREKEDYLHLKRQPKRRWLFWNSPSSPSSSAASSSSPSSSSAVV
# notes: E3-ubiquitin ligase RHOBTB2/DBC2; also called RHOBTB2 fused to NanoLuc luciferase; source: HEK293, transfected, in lysate; not shown: NanoLuc luciferase, N-terminal, kept
# Target: T1, FLAG-HSP90α wild type (human, UniProt P07900 1-732)
# T1 construct: HSP90α, stress-inducible cytosolic HSP90 isoform, encoded by HSP90AA1, human; The plasmid list names only pcDNA3-FLAG-HSP90α; the LUMIER methods call the protein 3XFLAG-tagged; also called HSP90α WT; 3XFLAG-HSP90α; source: HEK293, transfected, in lysate
# Assay: LUMIER; HEK293 in 96-well plates co-transfected with NanoLuc-client and 3XFLAG-HSP90α or β; TGNET lysate on anti-FLAG antibody-coated plate 2 h at 4°C; NanoLuc read-out divided by anti-FLAG-HRP read-out = relative interaction strength
# Conditions: partners not purified
binder,measurement,value
B1,"fold difference in relative interaction strength, HSP90α against HSP90β",~3 fold
